Experimental data reported in US11419948B2, “Functionalized microgels with fibrin binding elements” (Georgia Tech Research Corporation, priority 2013, dated 2022).

Legend:
[1] = test system: femoral vein injury; assay: Rat femoral vessel traumatic injury model; format: in vivo
Excerpt: To test the efficacy of PLPs in hemostasis, a well-established rat femoral vessel traumatic injury model was used^13-15. This model results in an easily visualized, continuous stream of blood flowing from the injury site. All protocols were approved by the Georgia Institute of Technology IACUC. Adult Sprague-Dawley male rats (200-250 g) were anesthetized with 5% isoflurane. Following anesthesia, an incision was made on the right hindlimb to expose the femoral vessels. A portion of the femoral vein was isolated from the surrounding connective tissue by placing a small piece of foil between the vessel and the underlying tissue. Following isolation of the vessel, the cavity will be irrigated with 0.9% irrigation fluid at 37° C. Animals were then administered 500 μL of saline (vehicle), purified human factor VIIa ([…], 100 μg/kg the current standard of care, purchased from Innovative Research), PLPs (20 mg/mL) or S11-ULC microgels (20 mg/mL) via tail vein injection using a 24 gauge catheter. Six (6) animals were tested per condition. Following a 5 minute circulation time, injury was induced to the right femoral vein by piercing the vein with a 22 gauge needle. A gauze was lightly placed below the injury site to collect blood, allowing for better visualization of the injury site as well as measurement of total blood loss. Gauze were changed every ten seconds for the first 30 seconds following injury and then every 30 s until bleeding ceased. Bleeding time was defined as the time required for bleeding to cease for a minimum of 10 s. Following cessation of bleeding, animals were euthanized with carbon dioxide. Following cessation of bleeding, animals were euthanized and organs separated, fixed with 10% formalin, paraffin embedded and 5 μm sections were produced using a Microm […] Microtome (Thermo Scientific). Co-localization of PLPs were characterized through immunofluorescence staining for the MYC-tag encoded on the sdFvs and through Martius Scarlet Blue (MSB) staining for fibrin in adjacent serial sections. For MYC-tag staining, samples were counter stained with Hoescht (Invitrogen) to visualize nuclei. All statistical analyses for bleeding time studies were performed with Prism software program (GraphPad, San Diego Calif.). Bleeding and blood weight data were statistically analyzed using repeated measures analysis of variance using the Tukey test at a 95% confidence interval.

[2] = target: T1, fibrinogen (Homo sapiens, UniProt P02671+P02675+P02679); assay: Clottability assay (protein incorporation into clot); format: biochemical; details: all H6 concentrations tested
T1 sequence (P02671 20-629 limits assumed): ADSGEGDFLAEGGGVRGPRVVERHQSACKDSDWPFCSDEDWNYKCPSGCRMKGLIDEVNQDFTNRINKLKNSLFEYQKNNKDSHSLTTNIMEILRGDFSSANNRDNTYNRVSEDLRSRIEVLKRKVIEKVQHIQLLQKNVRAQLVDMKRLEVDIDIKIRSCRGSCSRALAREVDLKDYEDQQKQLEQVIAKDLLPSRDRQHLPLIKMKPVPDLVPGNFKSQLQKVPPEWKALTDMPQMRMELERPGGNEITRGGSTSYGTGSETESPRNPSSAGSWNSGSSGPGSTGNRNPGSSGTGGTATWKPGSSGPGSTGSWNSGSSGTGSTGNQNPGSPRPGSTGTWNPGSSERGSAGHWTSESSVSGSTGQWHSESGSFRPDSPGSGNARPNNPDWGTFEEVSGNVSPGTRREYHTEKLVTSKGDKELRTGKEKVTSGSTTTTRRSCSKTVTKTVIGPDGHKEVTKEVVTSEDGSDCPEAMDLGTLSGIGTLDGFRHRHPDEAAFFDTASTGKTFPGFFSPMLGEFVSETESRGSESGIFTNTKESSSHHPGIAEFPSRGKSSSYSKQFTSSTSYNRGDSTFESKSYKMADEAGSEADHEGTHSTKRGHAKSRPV
T1 sequence (P02675 31-491): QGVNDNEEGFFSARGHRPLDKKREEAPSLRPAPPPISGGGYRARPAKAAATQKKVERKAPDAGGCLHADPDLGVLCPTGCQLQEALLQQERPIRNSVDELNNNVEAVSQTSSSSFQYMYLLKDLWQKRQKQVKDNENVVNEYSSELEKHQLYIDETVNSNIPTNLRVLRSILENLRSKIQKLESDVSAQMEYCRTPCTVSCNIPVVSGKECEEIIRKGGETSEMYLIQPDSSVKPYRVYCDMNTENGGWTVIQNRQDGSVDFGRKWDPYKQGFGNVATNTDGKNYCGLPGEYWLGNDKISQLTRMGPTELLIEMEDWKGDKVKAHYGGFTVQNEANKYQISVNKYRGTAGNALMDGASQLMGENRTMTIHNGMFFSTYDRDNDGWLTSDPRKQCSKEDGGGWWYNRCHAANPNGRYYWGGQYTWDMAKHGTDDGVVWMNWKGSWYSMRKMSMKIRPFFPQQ
T1 sequence (P02679 27-453): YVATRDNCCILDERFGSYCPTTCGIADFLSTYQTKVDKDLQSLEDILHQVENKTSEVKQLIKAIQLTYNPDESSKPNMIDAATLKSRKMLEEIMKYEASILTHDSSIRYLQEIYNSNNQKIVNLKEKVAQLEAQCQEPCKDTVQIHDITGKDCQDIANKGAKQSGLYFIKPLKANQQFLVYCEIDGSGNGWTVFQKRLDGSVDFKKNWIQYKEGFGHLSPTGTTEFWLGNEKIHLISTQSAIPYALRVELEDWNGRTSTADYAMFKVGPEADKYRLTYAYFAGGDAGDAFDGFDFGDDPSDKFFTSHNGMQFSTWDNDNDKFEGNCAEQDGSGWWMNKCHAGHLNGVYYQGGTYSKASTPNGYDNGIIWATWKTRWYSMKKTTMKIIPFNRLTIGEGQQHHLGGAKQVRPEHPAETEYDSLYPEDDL
Experimental: The clottability assay involved clotting purified fibrinogen or fibrinogen in the presence of H6 or S11, subsequently removing the gelled clot from solution, and measuring the amount of protein that was not incorporated into the clot. The same molar ratios of H6 and S11 to fibrinogen were investigated as per the turbidity assay. Soluble protein concentrations were measured using standard Quant-It assay protocols, and results were normalized to unpolymerized fibrinogen or fibrinogen-nanobody solutions of identical protein composition.

[3] = test system: fibrin E Regions; assay: ELISA against adsorbed fibrin E Regions; format: binding; details: E Region dilutions
Experimental: This was determined through ELISAs against plates coated with adsorbed fibrin D-Dimers or E Regions.
ELISA set-up and analysis was identical to that performed for the plasma-binding ELISA, the main exception being a substitution of human plasma dilutions for D-Dimer or E Region dilutions adsorbed to the 96-well plates. Both D-Dimer and […]

[4] = test system: human plasma components; assay: Qualitative human plasma assay (protein A pull down, polyacrylamide gel); format: binding; details: 30 minutes room temperature
Experimental: H6 binding was determined through both qualitative and quantitative human plasma assays. The qualitative assay involved incubating either H6, the non-binding negative control, S11, or saline with human plasma at room temperature for 30 minutes. The plasma mixtures were subsequently incubated with protein A beads with the intent to pull down all IgG isotypes (including H6 and S11).
The eluants from the protein A pull down experiment were run on a polyacrylamide gradient gel to visualize any band shifts present in the H6-plasma solution that would indicate a binding interaction not present in the S11-plasma or saline-plasma solutions.

B1: PLPs: ultra-low crosslinked pNIPAm-AAc microgels conjugated to fibrin-specific sdFv H6 (conjugate)
VH: QVQLLESGGGLVQPGGSLRLSCAASGDRFTHNDMGWVRQAPGKGLEWVSTIPTTDGSTYYADSVKGRFTISRDNSKSTLYLQMNSLRAEDTAVYYCATGYMWKAPAYVKYWGQGTLVTVSSAAAEQKLISEEDLNSAAHYTDIG
[1]; compared to S11-ULC microgels, p<0.05
  total blood loss: significantly less
[1]; postmortem
  fibrin staining in vessels: higher levels of fibrin staining
[1]; postmortem wound tissue
  localization at wound (MYC-tag staining, MSB fibrin staining): co-localization of PLPs with fibrin clots
[1]; rat
  blood loss over time (bleeding dynamics): slowest blood loss over time
[1]; rat, tail vein injection
  bleeding time compared to vehicle only: significantly decreased
[1]; rat, tail vein injection, 5 minute circulation time
  Bleeding time: 117 ± 16 s

B2: H6: fibrin-specific human sdFv clone from phage biopanning, SEQ ID NO: 1 (protein)
VHH: B1 VH
[2]
  protein incorporation (clottability): greater than 80%
[3]
  binding to E Region: negligible binding
[4]
  non-specific binding to human plasma components (band shifts): did not non-specifically bind
